The text below walks through data of US20100260668A1 (published 2010).

To fix the notation:
B1: DVD452 (bispecific antibody, human IgG1, kappa, L234A L235A)
heavy: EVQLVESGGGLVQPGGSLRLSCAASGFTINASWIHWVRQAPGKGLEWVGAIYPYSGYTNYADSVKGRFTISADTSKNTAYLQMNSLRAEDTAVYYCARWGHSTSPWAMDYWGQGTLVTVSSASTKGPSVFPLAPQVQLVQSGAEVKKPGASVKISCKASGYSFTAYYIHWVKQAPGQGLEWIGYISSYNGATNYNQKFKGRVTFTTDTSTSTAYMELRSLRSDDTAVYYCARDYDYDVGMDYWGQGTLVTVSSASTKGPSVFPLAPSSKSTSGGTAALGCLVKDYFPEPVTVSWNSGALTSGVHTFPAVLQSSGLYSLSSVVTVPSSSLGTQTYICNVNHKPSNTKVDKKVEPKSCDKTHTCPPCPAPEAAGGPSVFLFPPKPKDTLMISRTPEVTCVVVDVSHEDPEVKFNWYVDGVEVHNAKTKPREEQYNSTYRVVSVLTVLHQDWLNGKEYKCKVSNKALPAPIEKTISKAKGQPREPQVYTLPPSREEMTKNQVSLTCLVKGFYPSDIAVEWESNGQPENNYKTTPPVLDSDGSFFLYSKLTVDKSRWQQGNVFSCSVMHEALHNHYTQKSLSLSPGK
light: DIQMTQSPSSLSASVGDRVTITCRASQVIRRSLAWYQQKPGKAPKLLIYAASNLASGVPSRFSGSGSGTDFTLTISSLQPEDFATYYCQQSNTSPLTFGQGTKVEIKRTVAAPSVFIFPPDIVMTQSPDSLAVSLGERATISCRASESVDNYGISFMKWFQQKPGQPPKLLIYAASNQGSGVPDRFSGSGSGTDFTLTISSLQAEDVAVYYCQQSKEVPWTFGGGTKVEIKRTVAAPSVFIFPPSDEQLKSGTASVVCLLNNFYPREAKVQWKVDNALQSGNSQESVTEQDSKDSTYSLSSTLTLSKADYEKHKVYACEVTHQGLSSPVTKSFNRGEC
notes: DVD-Ig; N-term; VD AB071 (VEGF), C-term; VD AB069 (DLL4); HC linker long, LC linker long; also called DVD452H; DVD452L
B2: DVD480 (bispecific antibody, human IgG1, kappa)
heavy: not shown
light: DIQMTQSPSSLSASVGDRVTITCRASQVIRRSLAWYQQKPGKAPKLLIYAASNLASGVPSRFSGSGSGTDFTLTISSLQPEDFATYYCQQSNTSPLTFGQGTKVEIKRTVAAPDIQMTQSPSSLSASVGDRVTITCRASQDVSTAVAWYQQKPGKAPKLLIYSASFLYSGVPSRFSGSGSGTDFTLTISSLQPEDFATTYYCQQSYTGTVTFGQGTKVEIKRTVAAPSVFIFPPSDEQLKSGTASVVCLLNNFYPREAKVQWKVDNALQSGNSQESVTEQDSKDSTYSLSSTLTLSKADYEKHKVYACEVTHQGLSSPVTKSFNRGEC
notes: DVD-Ig; N-term; VD AB071 (VEGF), C-term; VD AB015 (DLL4); HC linker long, LC linker short; also called DVD480H; DVD480L
B3: DVD474 (bispecific antibody, human IgG1, kappa)
heavy: not shown
light: DIQMTQSPSSLSASVGDRVTITCRASQVIRRSLAWYQQKPGKAPKLLIYAASNLASGVPSRFSGSGSGTDFTLTISSLQPEDFATYYCQQSNTSPLTFGQGTKVEIKRTVAAPSVFIFPPDIQMTQSPSSLSASVGDRVTITCRASQDVSTAVAWYQQKPGKAPKLLIYSASFLYSGVPSRFSGSGSGTDFTLTISSLQPEDFATTYYCQQSYTGTVTFGQGTKVEIKRTVAAPSVFIFPPSDEQLKSGTASVVCLLNNFYPREAKVQWKVDNALQSGNSQESVTEQDSKDSTYSLSSTLTLSKADYEKHKVYACEVTHQGLSSPVTKSFNRGEC
notes: DVD-Ig; N-term; VD AB071 (VEGF), C-term; VD AB015 (DLL4); HC linker long, LC linker long; also called DVD474H; DVD474L
B4: DVD486 (bispecific antibody, human IgG1, kappa)
heavy: not shown
light: DIQMTQSPSSLSASVGDRVTITCRASQVIRRSLAWYQQKPGKAPKLLIYAASNLASGVPSRFSGSGSGTDFTLTISSLQPEDFATYYCQQSNTSPLTFGQGTKVEIKRTVAAPSVFIFPPDIQMTQSPSSLSASVGDRVTITCRASQDVSTAVAWYQQKPGKAPKLLIYSASFLYSGVPSRFSGSGSGTDFTLTISSLQPEDFATTYYCQQSYTGTVTFGQGTKVEIKRTVAAPSVFIFPPSDEQLKSGTASVVCLLNNFYPREAKVQWKVDNALQSGNSQESVTEQDSKDSTYSLSSTLTLSKADYEKHKVYACEVTHQGLSSPVTKSFNRGEC
notes: DVD-Ig; N-term; VD AB071 (VEGF), C-term; VD AB015 (DLL4); HC linker short, LC linker long; also called DVD486H; DVD486L
B5: DVD446 (bispecific antibody, human IgG1, kappa)
heavy: not shown
light: DIQMTQSPSSLSASVGDRVTITCRASQVIRRSLAWYQQKPGKAPKLLIYAASNLASGVPSRFSGSGSGTDFTLTISSLQPEDFATYYCQQSNTSPLTFGQGTKVEIKRTVAAPDIVMTQSPDSLAVSLGERATISCRASESVDNYGISFMKWFQQKPGQPPKLLIYAASNQGSGVPDRFSGSGSGTDFTLTISSLQAEDVAVYYCQQSKEVPWTFGGGTKVEIKRTVAAPSVFIFPPSDEQLKSGTASVVCLLNNFYPREAKVQWKVDNALQSGNSQESVTEQDSKDSTYSLSSTLTLSKADYEKHKVYACEVTHQGLSSPVTKSFNRGEC
notes: DVD-Ig; N-term; VD AB071 (VEGF), C-term; VD AB069 (DLL4); HC linker short, LC linker short; also called DVD446H; DVD446L
B6: DVD458 (bispecific antibody, human IgG1, kappa, L234A L235A)
heavy: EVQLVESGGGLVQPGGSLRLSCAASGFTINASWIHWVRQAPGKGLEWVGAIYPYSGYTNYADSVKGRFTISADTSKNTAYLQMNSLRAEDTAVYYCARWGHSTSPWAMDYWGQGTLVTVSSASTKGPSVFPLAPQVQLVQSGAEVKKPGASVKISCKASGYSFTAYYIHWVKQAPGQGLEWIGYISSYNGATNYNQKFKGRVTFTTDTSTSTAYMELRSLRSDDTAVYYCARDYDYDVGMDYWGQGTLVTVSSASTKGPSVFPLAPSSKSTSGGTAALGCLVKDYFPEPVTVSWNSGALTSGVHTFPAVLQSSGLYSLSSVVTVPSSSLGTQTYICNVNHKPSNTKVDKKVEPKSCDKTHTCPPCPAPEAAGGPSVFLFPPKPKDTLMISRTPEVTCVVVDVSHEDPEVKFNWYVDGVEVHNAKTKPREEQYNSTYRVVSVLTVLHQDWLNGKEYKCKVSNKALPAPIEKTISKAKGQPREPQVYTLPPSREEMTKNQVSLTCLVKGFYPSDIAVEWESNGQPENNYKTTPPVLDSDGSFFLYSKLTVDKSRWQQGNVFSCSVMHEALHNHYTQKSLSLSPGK
light: DIQMTQSPSSLSASVGDRVTITCRASQVIRRSLAWYQQKPGKAPKLLIYAASNLASGVPSRFSGSGSGTDFTLTISSLQPEDFATYYCQQSNTSPLTFGQGTKVEIKRTVAAPDIVMTQSPDSLAVSLGERATISCRASESVDNYGISFMKWFQQKPGQPPKLLIYAASNQGSGVPDRFSGSGSGTDFTLTISSLQAEDVAVYYCQQSKEVPWTFGGGTKVEIKRTVAAPSVFIFPPSDEQLKSGTASVVCLLNNFYPREAKVQWKVDNALQSGNSQESVTEQDSKDSTYSLSSTLTLSKADYEKHKVYACEVTHQGLSSPVTKSFNRGEC
notes: DVD-Ig; N-term; VD AB071 (VEGF), C-term; VD AB069 (DLL4); HC linker long, LC linker short; also called DVD458H; DVD458L
B7: DVD490 (bispecific antibody, human IgG1, kappa)
heavy: not shown
light: DIQMTQSPSSLSASVGDRVTITCRASQDVSTAVAWYQQKPGKAPKLLIYSASFLYSGVPSRFSGSGSGTDFTLTISSLQPEDFATYYCQQSYTTPPTFGQGTKVEIKRTVAAPDIQMTQSSSYLSVSLGGRVTITCKASDHINNWLAWYQQKPGNAPRLLISGATSLETGVPSRFSGSGSGKDYTLSITSLQTEDVATYYCQQYWSIPLTFGAGTKLELKRTVAAPSVFIFPPSDEQLKSGTASVVCLLNNFYPREAKVQWKVDNALQSGNSQESVTEQDSKDSTYSLSSTLTLSKADYEKHKVYACEVTHQGLSSPVTKSFNRGEC
notes: HC linker short, LC linker short; also called DVD-Ig DVD490
B8: DVD502 (bispecific antibody, human IgG1, kappa)
heavy: not shown
light: DIQMTQSPSSLSASVGDRVTITCRASQDVSTAVAWYQQKPGKAPKLLIYSASFLYSGVPSRFSGSGSGTDFTLTISSLQPEDFATYYCQQSYTTPPTFGQGTKVEIKRTVAAPDIQMTQSSSYLSVSLGGRVTITCKASDHINNWLAWYQQKPGNAPRLLISGATSLETGVPSRFSGSGSGKDYTLSITSLQTEDVATYYCQQYWSIPLTFGAGTKLELKRTVAAPSVFIFPPSDEQLKSGTASVVCLLNNFYPREAKVQWKVDNALQSGNSQESVTEQDSKDSTYSLSSTLTLSKADYEKHKVYACEVTHQGLSSPVTKSFNRGEC
notes: HC linker long, LC linker short; also called DVD-Ig DVD502
B9: DVD496 (bispecific antibody, human IgG1, kappa)
heavy: not shown
light: DIQMTQSPSSLSASVGDRVTITCRASQDVSTAVAWYQQKPGKAPKLLIYSASFLYSGVPSRFSGSGSGTDFTLTISSLQPEDFATYYCQQSYTTPPTFGQGTKVEIKRTVAAPSVFIFPPDIQMTQSSSYLSVSLGGRVTITCKASDHINNWLAWYQQKPGNAPRLLISGATSLETGVPSRFSGSGSGKDYTLSITSLQTEDVATYYCQQYWSIPLTFGAGTKLELKRTVAAPSVFIFPPSDEQLKSGTASVVCLLNNFYPREAKVQWKVDNALQSGNSQESVTEQDSKDSTYSLSSTLTLSKADYEKHKVYACEVTHQGLSSPVTKSFNRGEC
notes: HC linker long, LC linker long; also called DVD-Ig DVD496
B10: DVD508 (bispecific antibody, human IgG1, kappa)
heavy: not shown
light: DIQMTQSPSSLSASVGDRVTITCRASQDVSTAVAWYQQKPGKAPKLLIYSASFLYSGVPSRFSGSGSGTDFTLTISSLQPEDFATYYCQQSYTTPPTFGQGTKVEIKRTVAAPSVFIFPPDIQMTQSSSYLSVSLGGRVTITCKASDHINNWLAWYQQKPGNAPRLLISGATSLETGVPSRFSGSGSGKDYTLSITSLQTEDVATYYCQQYWSIPLTFGAGTKLELKRTVAAPSVFIFPPSDEQLKSGTASVVCLLNNFYPREAKVQWKVDNALQSGNSQESVTEQDSKDSTYSLSSTLTLSKADYEKHKVYACEVTHQGLSSPVTKSFNRGEC
notes: HC linker short, LC linker long; also called DVD-Ig DVD508

For the first assay, the target named is T1, VEGF (UniProt P15692-4 27-191).
T1 construct: Bought reagent; also called vascular endothelial growth factor
T1 sequence (P15692 other isoform, or with tags, fused parts or gaps limits assumed): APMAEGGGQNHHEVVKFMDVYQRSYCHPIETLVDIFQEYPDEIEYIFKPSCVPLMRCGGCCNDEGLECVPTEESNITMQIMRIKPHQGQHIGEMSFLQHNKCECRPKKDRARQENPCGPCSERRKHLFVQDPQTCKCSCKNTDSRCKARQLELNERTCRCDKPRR
In words: SPR (Biacore), DVD-Ig captured, VEGF in solution. On the technique in general: Surface plasmon resonance follows binding to a sensor surface in real time, without labels.
Broadly, the Kd is the equilibrium constant for the complex coming apart. Lower therefore signals higher affinity. Usually koff stands for the first-order rate constant of dissociation. A word on the kon: it is the second-order rate constant of association. A lower kon goes with slower complex formation. The molecule B1 registered an equilibrium dissociation constant (Kd) of 0.000155 nM, an off-rate constant (koff) of 1.61e-08 s⁻¹ and a kon of 104000 M⁻¹ s⁻¹.
The like results for B2 were, in that order, 0.302 nM, 4.91e-05 s⁻¹ and 162000 M⁻¹ s⁻¹.
Take B3: the affinity, expressed as Kd, was 0.00144 nM.
On the same count and under the same terms, with B4 the figure was 0.371 nM.
As to B5, binding was characterised by a dissociation constant (Kd) of 0.000297 nM, the off-rate (koff) came out at 3.62e-08 s⁻¹ and the on-rate (kon) is 122000 M⁻¹ s⁻¹.
The like results for B6 were, in that order, 0.000281 nM, 3.39e-08 s⁻¹ and 121000 M⁻¹ s⁻¹.

For another assay, the target named is T2, DLL4 ECD His tag (UniProt Q9NR61 27-529, limits assumed).
T2 construct: extracellular domain; also called DLL ECD His tag
In words: SPR (Biacore), DVD-Ig captured, DLL4 as analyte.
B7 registered a Kd of 0.528 nM, a dissociation rate constant (koff) of 7.7e-05 s⁻¹ and an association rate constant (kon) of 146000 M⁻¹ s⁻¹.
On to B8, for which the dissociation constant (Kd) was found to be 0.807 nM, the koff came to 7.43e-05 s⁻¹ and the kon is 92100 M⁻¹ s⁻¹.
The like results for B9 were, in that order, 1.44 nM, 0.000172 s⁻¹ and 120000 M⁻¹ s⁻¹.
The molecule B10 showed a dissociation constant Kd of 1.7 nM, a koff of 0.000167 s⁻¹ and a kon of 98400 M⁻¹ s⁻¹.
